{"source": "patent US20260166154A1", "about": "“METHODS FOR TREATING OBESITY” (AMGEN INC., priority 2022, published 2026)", "key": {"[1]": {"assay": "Predicted exposure multiples based on NOAEL established in cynomolgus monkeys", "set-up": "species or system cynomolgus monkey", "settings": "NOAEL 120 mg/kg in cynomolgus monkeys", "from_the_text": "(§1) The rationale for dose selection for Part C is based on the available PK data from this ongoing FIH study cohorts 1 to 11 (Part A and Part B) and the NOAEL exposures established based on 13-week GLP repeat-dose studies in mouse and cynomolgus monkeys."}, "[2]": {"assay": "Phase 1 SAD/MAD clinical study: safety and tolerability (TEAEs, vital signs)", "protocol": "This was a first-in-human, double-blind, randomized, placebo-controlled study comprised of two parts: single ascending dose (SAD) and multiple ascending dose (MAD) in participants with obesity.\nParticipants were randomly assigned to receive AMG133 or placebo in a ratio of 3:1. […] The MAD evaluated 3 doses given every 4 weeks on Days 1, 29 and 57. […] Enrollment into the SAD and MAD cohorts was sequential. Subsequent cohorts were dosed after the dosing regimen in the preceding cohort had been recommended by the Dose Level Review Team (DLRT) to be safe and well tolerated based on the safety and laboratory data through at least day 15. […] Placebo was provided as normal saline, the volume matching the investigational drug at each dose level.\nThe primary endpoints were the participant incidence of treatment-emergent adverse events, changes in laboratory safety tests, vital signs, and 12-lead electrocardiograms. […] The exploratory endpoints were pharmacodynamic parameters including, but not limited to, concentrations of fasting glucose, insulin, c-peptide, glucagon,, hemoglobin A1c, changes in body weight, waist circumference, and BMI.\nThe sample size for this trial was not based on any statistical inferences. As the trial was an exploratory first-in-human study with a small sample size, all pharmacokinetic, pharmacodynamic and safety parameters were analyzed descriptively. Participants who withdrew from the study prior to day 15 in the SAD or day 36 in the MAD were replaced so that the target numbers of participants for safety review and data collection would be achieved; replacement participants were assigned to receive the same treatment as the withdrawn participant. […] The safety analysis set was the same as the full analysis set. […] No missing data was imputed."}, "[3]": {"assay": "Phase 1 SAD/MAD clinical study (NCT04478708): pharmacokinetics", "format": "in vivo, human", "from_the_text": "(§2) Enrollment into the SAD and MAD cohorts was sequential.\n(§3) No missing data was imputed."}, "[4]": {"assay": "Phase 1 MAD cohorts: pharmacodynamic markers (fasting glucose, glucagon, HbA1c, hs-CRP)", "format": "in vivo, human", "settings": "for hs-CRP reduction: day 127", "from_the_text": "as §2, §3"}, "[5]": {"assay": "Predicted exposure multiples based on NOAEL established in mice", "set-up": "species or system mouse", "settings": "NOAEL 150 mg/kg in mice", "from_the_text": "as §1"}, "[6]": {"assay": "Phase 1 SAD/MAD clinical study: body weight, BMI, waist circumference", "format": "in vivo, human", "settings": "for decrease in body weight: MAD 420 mg Q4W", "procedure": "Eligible participants were women of non-reproductive potential and men aged 18 to 65 years with a body mass index (BMI) between 30.0 kg/m2 and 40.0 kg/m2 and HbA1c≤6.5% and/or a fasting glucose of […]125 mg/dl. Participants had normal vital signs, 12-lead electrocardiogram results and clinical laboratory tests at the time of randomization.\nas §2, §3"}, "[7]": {"settings": "Intact AMG 133, cohort 13, 420 mg SC"}, "[8]": {"settings": "Total AMG 133, cohort 12, 420 mg SC"}, "[9]": {"settings": "Total AMG 133, cohort 13, 420 mg SC"}, "[10]": {"settings": "Intact AMG 133, cohort 12, 420 mg SC"}}, "data": [{"substance": "maridebart cafraglutide [AMG 133]", "values": [{"measurement": "Predicted Exposure Multiples Monkey AUC", "setting": "[1]; [7]", "value": "~43.2", "unit": "fold"}, {"measurement": "Predicted Exposure Multiples Monkey AUC", "setting": "[1]; [8]", "value": 48.9, "unit": "fold"}, {"measurement": "Predicted Exposure Multiples Monkey AUC", "setting": "[1]; [9]", "value": "~45.5", "unit": "fold"}, {"measurement": "heart rate", "setting": "[2]; MAD cohorts", "value": "the 280 mg cohort had higher heart rates than the 140 mg or 420 mg cohort"}, {"measurement": "nausea and vomiting", "setting": "[2]; MAD cohorts", "value": "all participants who received AMG 133 experienced mild nausea and vomiting"}, {"measurement": "subjects reporting mild GI-related adverse events (mainly nausea, vomiting, diarrhea)", "setting": "[2]; MAD cohorts 7 to 10, after the first dose", "value": "Approximately 90%"}, {"measurement": "subjects experiencing GI-related adverse events", "setting": "[2]; MAD cohorts 7 to 10, after the second dose", "value": "less than 5%"}, {"measurement": "serious adverse events or deaths", "setting": "[2]; MAD cohorts 7 to 10, any dose", "value": "no serious adverse events or deaths reported after any of the doses"}, {"measurement": "subjects who discontinued the study prior to receiving the second dose", "setting": "[2]; MAD trial", "value": "Approximately 26%"}, {"measurement": "serious TEAEs, TEAEs leading to permanent discontinuation, severe TEAEs", "setting": "[2]; SAD and MAD", "value": "No serious TEAEs, TEAEs leading to permanent discontinuation, or severe TEAEs were reported"}, {"measurement": "tolerability", "setting": "[2]; SAD and MAD participants", "value": "tolerated AMG 133 well"}, {"measurement": "dyspepsia", "setting": "[2]; SAD cohorts", "value": "more frequently reported with lower doses (70 mg and 140 mg)"}, {"measurement": "heart rate", "setting": "[2]; SAD cohorts", "value": "increased with a single dose of 280, 560 or 840 mg AMG 133 but not in a dose-dependent manner"}, {"measurement": "nausea and vomiting", "setting": "[2]; SAD cohorts", "value": "reported in participants treated with ≥70 mg AMG 133"}, {"measurement": "severity of GI-related TEAEs", "setting": "[2]; SAD cohorts", "value": "all GI-related TEAEs were mild except one participant in the 140 mg cohort had moderate GI symptoms"}, {"measurement": "serious adverse events or deaths", "setting": "[2]; SAD cohorts 1 to 6 and 11", "value": "no serious adverse events or deaths have been reported"}, {"measurement": "subjects who withdrew consent due to GI-related adverse events", "setting": "[2]; cohort 9, after 420 mg dose on day 1", "value": 50, "unit": "%"}, {"measurement": "blood pressure", "setting": "[2]; single dose or multiple doses", "value": "No meaningful changes in blood pressure"}, {"measurement": "dose proportionality of pharmacokinetics", "setting": "[3]; doses 21 mg to 840 mg", "value": "dose-proportional"}, {"measurement": "pharmacokinetics linearity based on Cmax", "setting": "[3]; preliminary review, FIH SAD and MAD, AUC data pending", "value": "linear, dose proportional kinetics"}, {"measurement": "hs-CRP reduction", "setting": "[4]; MAD 140 mg", "value": "normalized to baseline"}, {"measurement": "glucagon", "setting": "[4]; MAD 280 mg, day 85 and day 127", "value": "greatest reduction in glucagon was observed at day 85 which normalized by day 127"}, {"measurement": "fasting glucose", "setting": "[4]; MAD 420 mg, safety follow up (day 127)", "value": "lower glucose levels were maintained"}, {"measurement": "fasting glucose", "setting": "[4]; MAD 140 and 280 mg, safety follow up (day 127)", "value": "returned to above baseline"}, {"measurement": "fasting glucose", "setting": "[4]; MAD 140 and 420 mg, day 29 and 85", "value": "decreased in a dose-responsive manner"}, {"measurement": "hs-CRP reduction", "setting": "[4]; MAD 280 and 420 mg", "value": "sustained until day 127"}, {"measurement": "hs-CRP change from baseline", "setting": "[4]; MAD cohorts", "value": "dose-responsive decrease"}, {"measurement": "HbA1c levels", "setting": "[4]; MAD, all three dose groups, normal range at baseline", "value": "decreased in all three dose groups but trended towards baseline at day 127"}, {"measurement": "Predicted Exposure Multiples Mouse AUC", "setting": "[5]; [10]", "value": "~42.4", "unit": "fold"}, {"measurement": "Predicted Exposure Multiples Mouse Cmax", "setting": "[5]; [10]", "value": "~43", "unit": "fold"}, {"measurement": "Predicted Exposure Multiples Mouse AUC", "setting": "[5]; [7]", "value": "~40.6", "unit": "fold"}, {"measurement": "Predicted Exposure Multiples Mouse Cmax", "setting": "[5]; [7]", "value": "~41.3", "unit": "fold"}, {"measurement": "Predicted Exposure Multiples Mouse AUC", "setting": "[5]; [8]", "value": 51, "unit": "fold"}, {"measurement": "Predicted Exposure Multiples Mouse Cmax", "setting": "[5]; [8]", "value": 54.3, "unit": "fold"}, {"measurement": "Predicted Exposure Multiples Mouse AUC", "setting": "[5]; [9]", "value": "~47.5", "unit": "fold"}, {"measurement": "Predicted Exposure Multiples Mouse Cmax", "setting": "[5]; [9]", "value": "~50.9", "unit": "fold"}, {"measurement": "maximal reduction of body weight from baseline", "setting": "[6]; MAD 140 mg Q4W, after 3 doses, day 78", "value": 7.44, "unit": "%"}, {"measurement": "reduction of body weight from baseline", "setting": "[6]; MAD 140 mg Q4W, post-dose day 7", "value": 1.97, "unit": "%"}, {"measurement": "waist circumference", "setting": "[6]; MAD 140 mg and 420 mg", "value": "dose-dependent decrease"}, {"measurement": "waist circumference", "setting": "[6]; MAD 280 mg", "value": "fluctuations in waist circumference changes"}, {"measurement": "decrease in body weight", "setting": "[6]; day 7", "value": "−4.86", "unit": "%"}, {"measurement": "decrease in body weight", "setting": "[6]; day 85", "value": "−14.5", "unit": "%"}, {"measurement": "duration of body weight reduction", "setting": "[6]; MAD cohorts, multiple doses", "value": "maintained until end of study day 207"}, {"measurement": "change from baseline in BMI", "setting": "[6]; SAD and MAD", "value": "followed a similar pattern as the change in body weight"}, {"measurement": "duration of body weight decrease", "setting": "[6]; all SADs except lowest dose 21 mg", "value": "maintained until day 150"}, {"measurement": "change in mean body weight from baseline", "setting": "[6]; all dose levels (SADs and MADs)", "value": "decreases in mean body weight from baseline"}, {"measurement": "maximal decrease of body weight from baseline", "setting": "[6]; single dose 21 mg, day 29", "value": 2.39, "unit": "%"}, {"measurement": "mean percent change of body weight from baseline", "setting": "[6]; single dose 21 mg, post-dose day 6", "value": "−1.59", "unit": "%"}, {"measurement": "mean percent change of body weight from baseline", "setting": "[6]; single dose 840 mg, day 6", "value": "−2.85", "unit": "%"}, {"measurement": "maximal decrease of body weight from baseline", "setting": "[6]; single dose 840 mg, day 92", "value": 8.24, "unit": "%"}]}]}
